According to patent US6300312A, “Antagonists of G-protein-coupled receptor” (Hô ;pital Sainte-Justine, priority 2000, dated 2001):

How the values were obtained:
FP receptor = molecular target: T1, FP receptor (Homo sapiens, UniProt P43088); assay: Phosphoinositide hydrolysis in A549 cells stably expressing the peptides, stimulated with PGF2α; format: cell-based; conditions: peptide stably expressed intracellularly in A549 cells; 1 μM PGF2α, 30 min; n=3; FIG. 1A
T1 construct: introduced transiently into permeabilized A549 cells; endogenous in cells; host or cells: A549 lung carcinoma cells (ATCC CCL185)
T1 sequence (P43088 whole entry): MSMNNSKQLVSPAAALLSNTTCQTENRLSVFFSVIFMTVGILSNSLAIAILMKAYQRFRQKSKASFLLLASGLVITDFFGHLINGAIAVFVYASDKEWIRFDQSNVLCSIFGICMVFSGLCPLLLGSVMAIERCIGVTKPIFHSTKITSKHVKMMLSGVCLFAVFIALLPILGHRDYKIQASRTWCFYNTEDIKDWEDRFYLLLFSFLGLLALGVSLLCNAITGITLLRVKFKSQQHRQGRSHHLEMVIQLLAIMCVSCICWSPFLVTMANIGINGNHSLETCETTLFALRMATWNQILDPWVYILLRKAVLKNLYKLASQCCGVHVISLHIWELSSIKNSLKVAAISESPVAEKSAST
Method: (§1) A549 lung carcinoma cells (ATCC Accession No.: CCL185, American Type Culture Collection, Rockville, Md. 20852) were cultured in Dulbecco's modified Eagles medium (DMEM) with 10% fetal bovine serum (FBS) and antibiotics, penicillin (10 U/ml) and streptomycin (10 μg/ml) in a humidified atmosphere containing 5% CO2 at 37° C. The cells were trypsinized and plated in 6-well tissue culture dishes at 2×10^5 cells/well, a day before commencing the experiments.
(§2) The expression plasmids carrying the third (PCP-1) and the fourth (PCP-2) intracellular domains were introduced into A549 cells using Transfectamine lipid (GIBCO Life Technologies, Burlington, ON). Three (3) micrograms of DNA and 16 μg of lipid were mixed in 200 μl of water and incubated at room temperature for 45 min. Then, the lipid-DNA complexes were diluted with 0.8 ml of Opti-MEM™ (GIBCO Life Technologies, Burlington, ON). The cells were washed twice with Hank's Balanced Salt Solution and incubated with lipid-DNA complexes for 6 hours. An equal volume of DMEM with 20% FBS was added and the cells were kept in the incubator overnight. On the next day, the medium was replaced with DMEM containing 10% FBS and antibiotics and incubated for another 24 hours. […]

EP1 = molecular target: T2, EP1 (Homo sapiens, UniProt P34995); assay: Phosphoinositide hydrolysis in A549 cells stably expressing the peptides, stimulated with PGE2; format: cell-based; conditions: peptide stably expressed intracellularly in A549 cells; 1 μM PGE2, 30 min; FIG. 1B
T2 construct: a related prostaglandin receptor expressed in these cells; endogenous in cells; host or cells: A549 lung carcinoma cells (ATCC CCL185)
T2 sequence (P34995 1-402): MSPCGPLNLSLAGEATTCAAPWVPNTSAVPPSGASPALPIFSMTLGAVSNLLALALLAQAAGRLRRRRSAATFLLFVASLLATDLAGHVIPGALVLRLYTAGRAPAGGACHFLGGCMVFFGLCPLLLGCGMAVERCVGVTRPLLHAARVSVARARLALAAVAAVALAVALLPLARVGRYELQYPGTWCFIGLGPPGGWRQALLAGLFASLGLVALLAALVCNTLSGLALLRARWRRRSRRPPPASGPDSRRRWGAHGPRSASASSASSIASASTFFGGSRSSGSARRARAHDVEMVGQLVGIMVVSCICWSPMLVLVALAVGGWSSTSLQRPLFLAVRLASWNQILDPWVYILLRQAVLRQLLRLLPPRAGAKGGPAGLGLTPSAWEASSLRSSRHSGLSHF
Method: as §1, §2

Sequence	ligand-stimulated phosphoinositide hydrolysis (fold stimulation over unstimulated controls) (FP receptor)	inositol phosphate generation by EP1 receptor on stimulation with PGE2 (EP1)
RVKFKSQQHR QGRSHHLEM (RVKFKSQQHRQGRSHHLEM) [PCP-1, third intracellular domain of the human FP receptor, expressed intracellularly from a plasmid]	inhibited	did not affect
RKAVLKNLYKLASQCCGVHVISLHIWELSSIKNSLKVAAISESPVAEKSAST (RKAVLKNLYKLASQCCGVHVISLHIWELSSIKNSLKVAAISESPVAEKSAST) [PCP-2, fourth intracellular domain of the human FP receptor, expressed intracellularly from a plasmid]	inhibited	did not affect
